Biological target: HLA-A*0201 (Homo sapiens, UniProt P04439, D140Y/D185E/D98H/E176V/E277Q/G131W/G231S/I119V/I121R/I166T/I218V/L300P/L318F/N151K/N90K/P208A/P217A/Q86G/Q94H/R138H/R169H/T345S)
Test: UV-ligand exchange with ELISA of stabilized MHC complexes
Type: binding
Conditions: for Exchange yield: class symbol
Excerpt: Candidate peptides for the vaccines according to the present invention were further tested for immunogenicity by in vitro priming assays. The individual peptide-MHC complexes required for these assays were produced by UV-ligand exchange, where a UV-sensitive peptide is cleaved upon UV-irradiation, and exchanged with the peptide of interest as analyzed. Only peptide candidates that can effectively bind and stabilize the peptide-receptive MHC molecules prevent dissociation of the MHC complexes. To determine the yield of the exchange reaction, an ELISA was performed based on the detection of the light chain (β2m) of stabilized MHC complexes. The assay was performed as generally described in Rodenko et al. (Rodenko B, Toebes M, Hadrup S R, van Esch W J, Molenaar A M, Schumacher T N, Ovaa H. Generation of peptide-MHC class I complexes through UV-mediated ligand exchange. Nat Protoc. 2006; 1(3):1120-32.).
96 well MAXISorp plates (NUNC) were coated over night with 2 ug/ml streptavidin in PBS at room temperature, washed 4× and blocked for 30 min at 37° C. in 2% BSA containing blocking buffer. Refolded HLA-A*0201/MLA-001 monomers served as standards, covering the range of 8-500 ng/ml. Peptide-MHC monomers of the UV-exchange reaction were diluted 100 fold in blocking buffer. Samples were incubated for 1 h at 37° C., washed four times, incubated with 2 ug/ml HRP conjugated anti-β2m for 1 h at 37° C., washed again and detected with TMB solution that is stopped with […]. Absorption was measured at 450 nm.

Substance: KLLEYIEEI (listed as Homo sapiens) [SEQ ID NO 71]
- Exchange yield: ++ (20%-49% = ++)

Substance: KLLTEVHAA (listed as Homo sapiens) [SEQ ID NO 72]
- Exchange yield: +++ (50%-70%, +++)

Substance: KLSWDLIYL (listed as Homo sapiens) [SEQ ID NO 32]
- Exchange yield: +++ (50%-70%, +++)

Substance: KLVEFDFLGA (listed as Homo sapiens) [SEQ ID NO 54]
- Exchange yield: +++ (50%-70%, +++)

Substance: KVLEILHRV (listed as Homo sapiens) [SEQ ID NO 65]
- Exchange yield: +++ (50%-70%, +++)

Substance: NLIEKSIYL (listed as Homo sapiens) [SEQ ID NO 4]
- Exchange yield: ++ (20%-49% = ++)

Substance: NLLAEIHGV (listed as Homo sapiens) [SEQ ID NO 44]
- Exchange yield: ++++ (>70 = ++++)

Substance: RLLDSVSRL (listed as Homo sapiens) [SEQ ID NO 39]
- Exchange yield: +++ (50%-70%, +++)

Substance: RLLGPSAAADILQL (listed as Homo sapiens) [SEQ ID NO 17]
- Exchange yield: ++ (20%-49% = ++)

Substance: RLLJAAENFL (RLLAAENFL; listed as Homo sapiens) [SEQ ID NO 49]
- Average exchange yield in % (ELISA detecting β2m of stabilized MHC complexes): 47%
- Exchange yield: ++ (20%-49% = ++)

Substance: RVLPPSALQSV (listed as Homo sapiens) [SEQ ID NO 87]
- Exchange yield: +++ (50%-70%, +++)

Substance: SILTIEDGIFEV (listed as Homo sapiens) [SEQ ID NO 41]
- Exchange yield: ++ (20%-49% = ++)

Substance: SISDVIAQV (listed as Homo sapiens) [SEQ ID NO 28]
- Exchange yield: +++ (50%-70%, +++)

Substance: SLAGDVALQQL (listed as Homo sapiens) [SEQ ID NO 63]
- Exchange yield: ++++ (>70 = ++++)

Substance: SLAPAGVIRV (listed as Homo sapiens) [SEQ ID NO 79]
- Exchange yield: +++ (50%-70%, +++)

Substance: SLFGNSGILENV (listed as Homo sapiens) [SEQ ID NO 80]
- Exchange yield: +++ (50%-70%, +++)

Substance: SLHFLILYV (listed as Homo sapiens) [SEQ ID NO 38]
- Exchange yield: + (<20% = +)

Substance: SLIDADPYL (listed as Homo sapiens) [SEQ ID NO 58]
- Exchange yield: +++ (50%-70%, +++)

Substance: SLIEDLILL (listed as Homo sapiens) [SEQ ID NO 12]
- Exchange yield: ++ (20%-49% = ++)

Substance: SLLAQNTSWLL (listed as Homo sapiens) [SEQ ID NO 74]
- Exchange yield: +++ (50%-70%, +++)

Substance: SLLESNKDLLL (listed as Homo sapiens) [SEQ ID NO 88]
- Exchange yield: +++ (50%-70%, +++)

Substance: SLLPVDIRQYL (listed as Homo sapiens) [SEQ ID NO 50]
- Exchange yield: +++ (50%-70%, +++)

Substance: SLVAVELEKV (listed as Homo sapiens) [SEQ ID NO 90]
- Exchange yield: +++ (50%-70%, +++)

Substance: SLWGGDVVL (listed as Homo sapiens) [SEQ ID NO 42]
- Exchange yield: +++ (50%-70%, +++)

Substance: SLYDNQITTV (listed as Homo sapiens) [SEQ ID NO 78]
- Exchange yield: ++ (20%-49% = ++)

Substance: SLYKGLLSV (listed as Homo sapiens) [SEQ ID NO 56]
- Exchange yield: ++ (20%-49% = ++)

Substance: SMSGYDQVL (listed as Homo sapiens) [SEQ ID NO 8]
- Exchange yield: ++ (20%-49% = ++)

Substance: TLISRLPAV (listed as Homo sapiens) [SEQ ID NO 61]
- Exchange yield: ++++ (>70 = ++++)

Substance: TLSSIKVEV (listed as Homo sapiens) [SEQ ID NO 5]
- Exchange yield: +++ (50%-70%, +++)

Substance: TLTNIIHNL (listed as Homo sapiens) [SEQ ID NO 46]
- Exchange yield: +++ (50%-70%, +++)

Substance: TLWYRAPEV (listed as Homo sapiens) [SEQ ID NO 7]
- Exchange yield: ++ (20%-49% = ++)

Substance: TLYPHTS (TLYPHTSQV; listed as Homo sapiens) [SEQ ID NO 18]
- Exchange yield: ++ (20%-49% = ++)

Substance: TVAEVIQS V (TVAEVIQSV; listed as Homo sapiens) [SEQ ID NO 27]
- Exchange yield: +++ (50%-70%, +++)

Substance: TVIGFLLPFA (listed as Homo sapiens) [SEQ ID NO 16]
- Exchange yield: ++++ (>70 = ++++)

Substance: VLAPLFVYL (listed as Homo sapiens) [SEQ ID NO 37]
- Exchange yield: +++ (50%-70%, +++)

Substance: VLFPNLKTV (listed as Homo sapiens) [SEQ ID NO 35]
- Exchange yield: ++ (20%-49% = ++)

Substance: VLLPVEVATHYL (listed as Homo sapiens) [SEQ ID NO 11]
- Exchange yield: +++ (50%-70%, +++)

Substance: VLSVVEVTL (listed as Homo sapiens) [SEQ ID NO 10]
- Exchange yield: ++++ (>70 = ++++)

— patent US10487116B2, “Immunotherapy against several tumors, such as lung cancer, including NSCLC” (IMMATICS BIOTECHNOLOGIES GMBH, priority 2013, dated 2019)
